Test results reported in patent US20210052649A1 (FRED HUTCHINSON CANCER RESEARCH CENTER, published 2021).

Biological target: T1, ROR1-protein (human, UniProt Q01973 30-403, limits assumed)
T1 construct: also called orphan tyrosine kinase receptor ROR1
Test: assay not described; monovalent binding affinity for ROR1 compared with mAb 2A2

T1 sequence (Q01973 30-403 limits assumed): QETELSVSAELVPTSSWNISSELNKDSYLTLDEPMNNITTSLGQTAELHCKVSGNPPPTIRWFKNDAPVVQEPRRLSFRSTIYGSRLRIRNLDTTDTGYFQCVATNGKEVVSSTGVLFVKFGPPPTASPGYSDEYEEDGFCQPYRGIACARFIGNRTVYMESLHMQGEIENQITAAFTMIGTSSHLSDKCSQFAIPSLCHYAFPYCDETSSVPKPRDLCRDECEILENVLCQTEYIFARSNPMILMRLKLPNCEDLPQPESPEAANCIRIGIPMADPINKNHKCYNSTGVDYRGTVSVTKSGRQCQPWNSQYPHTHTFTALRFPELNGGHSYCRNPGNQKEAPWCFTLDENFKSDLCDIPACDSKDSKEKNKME

B1: anti-ROR1 monoclonal antibody R12 (antibody, V domains shown)
VH: QEQLVESGGRLVTPGGSLTLSCKASGFDFSAYYMSWVRQAPGKGLEWIATIYPSSGKTYYATWVNGRFTISSDNAQNTVDLQMNSLTAADRATYFCARDSYADDGALFNIWGPGTLVTISS
VL: ELVLTQSPSVSAALGSPAKITCTLSSAHKTDTIDWYQQLQGEAPRYLMQVQSDGSYTKRPGVPDRFSGSSSGADRYLIIPSVQADDEADYYCGADYIGGYVFGGGTQLTVTG
notes: also called mAb R12; R12 mAb
With B1 the “fold higher monovalent binding affinity than 2A2” value was > 50 fold.
